Patent US20040002144A1
Positions count from the first letter of the chain named. In names and notes the source's numbering stands.

B1: Ser-type MTG (mutant in which Asp1 has been removed, starts with Ser2), P81453 78-407 (enzyme)
chain: SDDRVTPPAEPLDRMPDPYRPSYGRAETVVNNYIRKWQQVYSHRDGRKQQMTEEQREWLSYGCVGVTWVNSGQYPTNRLAFASFDEDRFKNELKNGRPRSGETRAEFEGRVAKESFDEEKGFQRAREVASVMNRALENAHDESAYLDNLKKELANGNDALRNEDARSPFYSALRNTPSFKERNGGNHDPSRMKAVIYSKHFWSGQDRSSSADKRKYGDPDAFRPAPGTGLVDMSRDRNIPRSPTSPGEGFVNFDYGWFGAQTEADADKTVWTHGNHYHAPNGSLGAMHVYESKFRNWSEGYSDFDRGAYVITFIPKSWNTAPDKVKQGWP
B2: S2Y mutant MTG (Ser2 replaced with Tyr, in Met type MTG), P81453 79-407 (enzyme)
chain: MDYDDRVTPPAEPLDRMPDPYRPSYGRAETVVNNYIRKWQQVYSHRDGRKQQMTEEQREWLSYGCVGVTWVNSGQYPTNRLAFASFDEDRFKNELKNGRPRSGETRAEFEGRVAKESFDEEKGFQRAREVASVMNRALENAHDESAYLDNLKKELANGNDALRNEDARSPFYSALRNTPSFKERNGGNHDPSRMKAVIYSKHFWSGQDRSSSADKRKYGDPDAFRPAPGTGLVDMSRDRNIPRSPTSPGEGFVNFDYGWFGAQTEADADKTVWTHGNHYHAPNGSLGAMHVYESKFRNWSEGYSDFDRGAYVITFIPKSWNTAPDKVKQGWP
B3: S2D mutant MTG (Ser2 replaced with Asp, in Met type MTG), P81453 79-407 (enzyme)
chain: B2 chain with Y3D
B4: S2R mutant MTG (Ser2 replaced with Arg, in Met type MTG), P81453 79-407 (enzyme)
chain: B2 chain with Y3R
B5: transglutaminase derived from Streptoverticillium mobaraense (MTG), wild type, P81453 77-407 (enzyme)
chain: DSDDRVTPPAEPLDRMPDPYRPSYGRAETVVNNYIRKWQQVYSHRDGRKQQMTEEQREWLSYGCVGVTWVNSGQYPTNRLAFASFDEDRFKNELKNGRPRSGETRAEFEGRVAKESFDEEKGFQRAREVASVMNRALENAHDESAYLDNLKKELANGNDALRNEDARSPFYSALRNTPSFKERNGGNHDPSRMKAVIYSKHFWSGQDRSSSADKRKYGDPDAFRPAPGTGLVDMSRDRNIPRSPTSPGEGFVNFDYGWFGAQTEADADKTVWTHGNHYHAPNGSLGAMHVYESKFRNWSEGYSDFDRGAYVITFIPKSWNTAPDKVKQGWP

Target: casein
Experiment: cell-based or functional assay

Row | time required for the gelation of casein | Binder
1 | 85 min | B1
2 | 100 min | B2
3 | 95 min | B3
4 | 85 min | B4
5 | 90 min | B5
